Measured values taken from US20250281611A1 (BIOSCEPTRE AUST, published 2025).

What was measured:
CD33 [1] = biological target: T1, CD33 (UniProt P20138 18-364, limits assumed); assay: flow cytometry, MOLM-13 cells, anti-His-FITC detection
T1 construct: whole, on cells; also called Siglec-3; CD33 on MOLM-13 cells
Protocol: (§1) MOLM-13 cells were incubated with different CD33 BRIDGE variants at saturating concentrations. […] The MFI intensity correlates with the number of secondary antibodies bound to the CD33 BRIDGE variants that are only detected if they are bound to the MOLM-13 cells. MFI: median fluorescence intensity. BLItz: Bio-Layer interferometry (BLI) technology using HIS-tag identification tips. […] The higher the MFIR, the stronger the binding.

nfP2X7 CAR 1 [2] = biological target: T2, nfP2X7 CAR 1; assay: flow cytometry, CAR T cells, anti-His-FITC, EGFR+ over EGFR- cells
T2 construct: Expressed on T cells with truncated EGFR as marker gene; also called anti-nfP2X7 receptor CAR 1; nfP2X7 targeted CAR on EGFR+ T cells
Protocol: (§2) nfP2X₇ CAR T cells were incubated with different BRiDGE variants at saturating concentrations. […] The MFI intensity correlates with the number of secondary bound antibodies bound to the BRiDGEs that are only detected if they are bound to the CAR T cells. EGFR was used as a marker gene to detect the CAR expression. Thus, the EGFR+ T cell population was defined as the CAR expressing cells and the EGFR− T cell population was defined as the CAR negative subset. MFI: median fluorescence intensity. EGFR: epidermal growth factor receptor. BLItz: Bio-Layer interferometry (BLI) technology using HIS-tag identification tips. HIS-tag MFI Ratio: relative index that is calculated by the testing condition MFI divided by the control MFI, which corresponds to the MFI measured on EGFR+ T cells (defined as CAR positive cells) divided by the MFI measured on the EGFR− T cells (defined as CAR negative cells). […] The higher the MFIR, the stronger the binding.

nfP2X7 CAR 1 [3] = biological target: T2, nfP2X7 CAR 1; assay: flow cytometry, nfP2X7 CAR T cells (EGFR+), anti-His-FITC detection
Protocol: as §2

nfP2X7 CAR 1 [4] = biological target: T2, nfP2X7 CAR 1; assay: flow cytometry, CAR T cells, anti-His-FITC, EGFR+ MFI over background 0.4
Protocol: as §2

CD33 [5] = biological target: T1, CD33; assay: flow cytometry, MOLM-13 cells, anti-His-FITC detection, ratio to no bridge
Protocol: as §1

T1 sequence (P20138 18-364 limits assumed): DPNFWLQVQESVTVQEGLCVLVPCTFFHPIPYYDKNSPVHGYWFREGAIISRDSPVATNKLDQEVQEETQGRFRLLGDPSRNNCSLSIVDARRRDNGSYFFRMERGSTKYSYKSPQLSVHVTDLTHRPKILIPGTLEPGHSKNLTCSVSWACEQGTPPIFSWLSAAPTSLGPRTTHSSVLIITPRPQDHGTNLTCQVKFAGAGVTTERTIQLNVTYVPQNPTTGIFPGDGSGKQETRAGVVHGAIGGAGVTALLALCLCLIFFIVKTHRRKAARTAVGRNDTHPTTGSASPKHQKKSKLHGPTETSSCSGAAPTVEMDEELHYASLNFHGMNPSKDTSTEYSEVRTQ

Row | MFI HisTag FITC (CD33 [1]) | HisTag MFI Ratio of EGFR+/EGFR- (nfP2X7 CAR 1 [2]) | MFI HisTag FITC in EGFR+ Population (nfP2X7 CAR 1 [3]) | HisTag MFI Ratio (background 0.4) (nfP2X7 CAR 1 [4]) | MFIR HisTag FITC (CD33 [5]) | Binder
1 | 6.11 | 2.5 | 1.08 | 2.7 | 9.12 | CD33 BRIDGE variant B1 (Fab, V domains shown, Lintuzumab-based Fab bridging molecule) VH: QVQLVQSGAEVKKPGSSVKVSCKASGYTFTDYNMHWVRQAPGQGLEWIGYIYPYNGGTGYNQKFKSKATITADESTNTAYMELSSLRSEDTAVYYCARGRPAMDYWGQGTLVTVSS VL: DIQMTQSPSSLSASVGDRVTITCRASESVDNYGISFMNWFQQKPGKAPKLLIYAASNQGSGVPSRFSGSGSGTDFTLTISSLQPDDFATYYCQQSKEVPWTFGQGTKVEIKR
2 | 5.59 | 2.5 | 1.11 | 2.8 | 8.34 | CD33 BRIDGE variant B2 (Fab, V domains shown, Lintuzumab-based Fab bridging molecule) VH: QVQLVQSGAEVKKPGSSVKVSCKASGYTFTDYNMHWVRQAPGQGLEWIGYIYPYNGGTGYNQKFKSKATITADESTNTAYMELSSLRSEDTAVYYCARGRPAMDYWGQGTLVTVSS VL: DIQMTQSPSSLSASVGDRVTITCRASESVDNYGISFMNWFQQKPGKAPKLLIYAASNQGSGVPSRFSGSGSGTDFTLTISSLQPDDFATYYCQQSKEVPWTFGQGTKVEIKR
3 | 6.33 | 2.8 | 1.16 | 2.9 | 9.45 | CD33 BRIDGE variant B9 (Fab, V domains shown, Lintuzumab-based Fab bridging molecule) VH: QVQLVQSGAEVKKPGSSVKVSCKASGYTFTDYNMHWVRQAPGQGLEWIGYIYPYNGGTGYNQKFKSKATITADESTNTAYMELSSLRSEDTAVYYCARGRPAMDYWGQGTLVTVSS VL: DIQMTQSPSSLSASVGDRVTITCRASESVDNYGISFMNWFQQKPGKAPKLLIYAASNQGSGVPSRFSGSGSGTDFTLTISSLQPDDFATYYCQQSKEVPWTFGQGTKVEIKR
4 | 6.76 | 2.4 | 1.04 | 2.6 | 10.1 | CD33 BRIDGE variant B3 (Fab, V domains shown, Lintuzumab-based Fab bridging molecule) VH: QVQLVQSGAEVKKPGSSVKVSCKASGYTFTDYNMHWVRQAPGQGLEWIGYIYPYNGGTGYNQKFKSKATITADESTNTAYMELSSLRSEDTAVYYCARGRPAMDYWGQGTLVTVSS VL: DIQMTQSPSSLSASVGDRVTITCRASESVDNYGISFMNWFQQKPGKAPKLLIYAASNQGSGVPSRFSGSGSGTDFTLTISSLQPDDFATYYCQQSKEVPWTFGQGTKVEIKR
5 | 6.53 | 2.9 | 1.34 | 3.4 | 9.75 | CD33 BRIDGE variant B8 (Fab, V domains shown, Lintuzumab-based Fab bridging molecule) VH: QVQLVQSGAEVKKPGSSVKVSCKASGYTFTDYNMHWVRQAPGQGLEWIGYIYPYNGGTGYNQKFKSKATITADESTNTAYMELSSLRSEDTAVYYCARGRPAMDYWGQGTLVTVSS VL: DIQMTQSPSSLSASVGDRVTITCRASESVDNYGISFMNWFQQKPGKAPKLLIYAASNQGSGVPSRFSGSGSGTDFTLTISSLQPDDFATYYCQQSKEVPWTFGQGTKVEIKR
6 | 5.52 | 3 | 1.45 | 3.6 | 8.24 | CD33 BRIDGE variant B7 (Fab, V domains shown, Lintuzumab-based Fab bridging molecule) VH: QVQLVQSGAEVKKPGSSVKVSCKASGYTFTDYNMHWVRQAPGQGLEWIGYIYPYNGGTGYNQKFKSKATITADESTNTAYMELSSLRSEDTAVYYCARGRPAMDYWGQGTLVTVSS VL: DIQMTQSPSSLSASVGDRVTITCRASESVDNYGISFMNWFQQKPGKAPKLLIYAASNQGSGVPSRFSGSGSGTDFTLTISSLQPDDFATYYCQQSKEVPWTFGQGTKVEIKR
7 | 5.53 | 3.1 | 1.68 | 4.2 | 8.25 | CD33 BRIDGE variant B4 (Fab, Lintuzumab-based Fab bridging molecule) light: GHNYTTRNILPGLNITSTFHKTSGSGKEPKSSDKTHTDIQMTQSPSSLSASVGDRVTITCRASESVDNYGISFMNWFQQKPGKAPKLLIYAASNQGSGVPSRFSGSGSGTDFTLTISSLQPDDFATYYCQQSKEVPWTFGQGTKVEIKRTVAAPSVFIFPPSDEQLKSGTASVVCLLNNFYPREAKVQWKVDNALQSGNSQESVTEQDSKDSTYSLSSTLTLSKADYEKHKVYACEVTHQGLSSPVTKSFNRGECHHHHHH heavy: QVQLVQSGAEVKKPGSSVKVSCKASGYTFTDYNMHWVRQAPGQGLEWIGYIYPYNGGTGYNQKFKSKATITADESTNTAYMELSSLRSEDTAVYYCARGRPAMDYWGQGTLVTVSSASTKGPSVFPLAPSSKSTSGGTAALGCLVKDYFPEPVTVSWNSGALTSGVHTFPAVLQSSGLYSLSSVVTVPSSSLGTQTYICNVNHKPSNTKVDKKVEPKSCHHHHHH
8 | 6.25 | 3.4 | 1.96 | 4.9 | 9.33 | CD33 BRIDGE variant B6 (Fab, Lintuzumab-based Fab bridging molecule) light: GHNYTTRNILPGLNITSTFHKTSGSGKGGGSEPKSSDKTHTDIQMTQSPSSLSASVGDRVTITCRASESVDNYGISFMNWFQQKPGKAPKLLIYAASNQGSGVPSRFSGSGSGTDFTLTISSLQPDDFATYYCQQSKEVPWTFGQGTKVEIKRTVAAPSVFIFPPSDEQLKSGTASVVCLLNNFYPREAKVQWKVDNALQSGNSQESVTEQDSKDSTYSLSSTLTLSKADYEKHKVYACEVTHQGLSSPVTKSFNRGECHHHHHH heavy: QVQLVQSGAEVKKPGSSVKVSCKASGYTFTDYNMHWVRQAPGQGLEWIGYIYPYNGGTGYNQKFKSKATITADESTNTAYMELSSLRSEDTAVYYCARGRPAMDYWGQGTLVTVSSASTKGPSVFPLAPSSKSTSGGTAALGCLVKDYFPEPVTVSWNSGALTSGVHTFPAVLQSSGLYSLSSVVTVPSSSLGTQTYICNVNHKPSNTKVDKKVEPKSCHHHHHH
9 | 5.86 | 2.8 | 1.4 | 3.5 | 8.75 | CD33 BRIDGE variant B5 (Fab, Lintuzumab-based Fab bridging molecule) light: GHNYTTRNILPGLNITSTFHKTSGSGKGSEPKSSDKTHTDIQMTQSPSSLSASVGDRVTITCRASESVDNYGISFMNWFQQKPGKAPKLLIYAASNQGSGVPSRFSGSGSGTDFTLTISSLQPDDFATYYCQQSKEVPWTFGQGTKVEIKRTVAAPSVFIFPPSDEQLKSGTASVVCLLNNFYPREAKVQWKVDNALQSGNSQESVTEQDSKDSTYSLSSTLTLSKADYEKHKVYACEVTHQGLSSPVTKSFNRGECHHHHHH heavy: QVQLVQSGAEVKKPGSSVKVSCKASGYTFTDYNMHWVRQAPGQGLEWIGYIYPYNGGTGYNQKFKSKATITADESTNTAYMELSSLRSEDTAVYYCARGRPAMDYWGQGTLVTVSSASTKGPSVFPLAPSSKSTSGGTAALGCLVKDYFPEPVTVSWNSGALTSGVHTFPAVLQSSGLYSLSSVVTVPSSSLGTQTYICNVNHKPSNTKVDKKVEPKSCHHHHHH
10 | 7.39 | 2.7 | 1.2 | 3 | 11 | CD33 BRIDGE variant B11 (Fab, Lintuzumab-based Fab bridging molecule) light: GHNYTTRNILPGLNITSTFHKTSGSGKGSEPKSSDKTHTGSDIQMTQSPSSLSASVGDRVTITCRASESVDNYGISFMNWFQQKPGKAPKLLIYAASNQGSGVPSRFSGSGSGTDFTLTISSLQPDDFATYYCQQSKEVPWTFGQGTKVEIKRTVAAPSVFIFPPSDEQLKSGTASVVCLLNNFYPREAKVQWKVDNALQSGNSQESVTEQDSKDSTYSLSSTLTLSKADYEKHKVYACEVTHQGLSSPVTKSFNRGECHHHHHH heavy: QVQLVQSGAEVKKPGSSVKVSCKASGYTFTDYNMHWVRQAPGQGLEWIGYIYPYNGGTGYNQKFKSKATITADESTNTAYMELSSLRSEDTAVYYCARGRPAMDYWGQGTLVTVSSASTKGPSVFPLAPSSKSTSGGTAALGCLVKDYFPEPVTVSWNSGALTSGVHTFPAVLQSSGLYSLSSVVTVPSSSLGTQTYICNVNHKPSNTKVDKKVEPKSCHHHHHH
11 | 6.86 | 3.5 | 1.99 | 5 | 10.2 | CD33 BRIDGE variant B10 (Fab, Lintuzumab-based Fab bridging molecule) light: GHNYTTRNILPGLNITSTFHKTSGSGKEPKSSDKTHTGSDIQMTQSPSSLSASVGDRVTITCRASESVDNYGISFMNWFQQKPGKAPKLLIYAASNQGSGVPSRFSGSGSGTDFTLTISSLQPDDFATYYCQQSKEVPWTFGQGTKVEIKRTVAAPSVFIFPPSDEQLKSGTASVVCLLNNFYPREAKVQWKVDNALQSGNSQESVTEQDSKDSTYSLSSTLTLSKADYEKHKVYACEVTHQGLSSPVTKSFNRGECHHHHHH heavy: QVQLVQSGAEVKKPGSSVKVSCKASGYTFTDYNMHWVRQAPGQGLEWIGYIYPYNGGTGYNQKFKSKATITADESTNTAYMELSSLRSEDTAVYYCARGRPAMDYWGQGTLVTVSSASTKGPSVFPLAPSSKSTSGGTAALGCLVKDYFPEPVTVSWNSGALTSGVHTFPAVLQSSGLYSLSSVVTVPSSSLGTQTYICNVNHKPSNTKVDKKVEPKSCHHHHHH
